Reference: patent publication US11726088B2, “Sirtuin 4 (SIRT4) lipoamidase activity and uses thereof” (THE TRUSTEES OF PRINCETON UNIVERSITY, priority 2014, dated 2023)
Primed or numbered codes have the meaning given here. Ends that are not written are not given here. * marks the point of attachment. lipoyl″ = O=C(CCCC[C@@H]1CCSS1)*

Columns and labels:
SIRT4 [1] = biological target: T1, SIRT4 (Homo sapiens, UniProt Q9Y6E7); assay: HPLC-based SIRT4 kinetics assays (steady-state, acyl-modified peptide substrates); format: biochemical
T1 construct: 6xHis (followed by human rhinovirus 3C protease site) (N); made in house; host or cells: E. coli BL21(DE3), co-expressed with GroEL and GroES
T1 sequence (Q9Y6E7 33-314): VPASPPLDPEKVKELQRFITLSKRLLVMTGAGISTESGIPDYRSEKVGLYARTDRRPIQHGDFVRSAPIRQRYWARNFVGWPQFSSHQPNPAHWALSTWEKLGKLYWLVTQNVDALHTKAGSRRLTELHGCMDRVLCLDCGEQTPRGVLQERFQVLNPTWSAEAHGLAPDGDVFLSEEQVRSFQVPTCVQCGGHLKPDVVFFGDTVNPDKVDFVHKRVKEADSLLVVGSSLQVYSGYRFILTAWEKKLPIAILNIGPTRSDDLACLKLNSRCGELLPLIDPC
Text: Recombinant SIRT4 protein expression and purification. N-terminally truncated human Sirt4 (33-314 of SEQ ID NO: 2) was cloned into a derivative of pET-15b containing a human rhinovirus 3C Protease cleavage site in place of its thrombin cleavage site. 6×His-Sirt4 was co-expressed with GroEL and GroES in BL21(DE3) E. coli in order to promote proper protein folding. Protein was purified using immobilized-metal affinity chromatography (IMAC) followed by anion-exchange chromatography to remove associated folding chaperones. For some experiments the His-tag was removed using 3C protease. Protein was concentrated, snap frozen in N2(l), and stored at −80° C. HPLC-based SIRT4 kinetics assays. SIRT4 kinetic assays were essentially performed as described by others^3,4. Briefly, enzyme reactions (20 μL) were performed in 50 mM Tris, pH 8.0, containing 5 μM recombinant SIRT4 and varying concentrations (0 to 2500 μM) of H3K9- or DLAT-modified peptides with either acetyl-lysine, biotinyl-lysine, or lipoyl-lysine. Reactions were initiated by addition of NAD (1 mM) and incubated at 25° C. for between 30-120 min, depending on substrate-specific reaction rates and to maintain steady-state conditions. Reactions were quenched with formic acid to a final concentration of 0.5% (v/v) and analyzed by HPLC-UV detection (Ultimate 3000 RSLC/VWD-3400). Substrate and product were separated by reverse-phase chromatography (Acclaim PepMap RSLC, 75 μm×15 cm) at 0.75 μL/min. Product concentration was measured by peak integration of A280 signals. Initial reaction velocities were determined in at least duplicate and fit to a modified Briggs-Haldane equation, which substituted kcat×[SIRT4] for Vmax and allowed determination of kinetic parameters, kcat, Km and kcat/Km and their associated error (±SEM), using GraphPad Prism 5. SIRT4's catalytic efficiency towards the various acyl-modified peptide substrates was assessed (Table 1 below).

SIRT3 = biological target: T2, SIRT3 (Homo sapiens, UniProt Q9NTG7); assay: Steady-state kinetic analysis of SIRT3 with DLAT K259 peptides; format: biochemical
T2 construct: purchased Sigma SRP0117-100UG
T2 sequence (Q9NTG7 1-399): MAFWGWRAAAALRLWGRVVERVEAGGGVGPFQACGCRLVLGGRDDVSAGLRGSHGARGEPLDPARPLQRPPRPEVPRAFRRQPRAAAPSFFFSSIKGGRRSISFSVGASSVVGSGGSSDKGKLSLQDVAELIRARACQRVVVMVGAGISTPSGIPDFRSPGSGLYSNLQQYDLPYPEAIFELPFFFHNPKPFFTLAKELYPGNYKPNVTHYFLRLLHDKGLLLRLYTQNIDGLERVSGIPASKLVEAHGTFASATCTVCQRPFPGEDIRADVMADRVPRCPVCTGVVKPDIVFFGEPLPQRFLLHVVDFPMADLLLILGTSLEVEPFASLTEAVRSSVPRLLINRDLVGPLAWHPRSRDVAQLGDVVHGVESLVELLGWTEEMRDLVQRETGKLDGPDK

SIRT4 [2] = biological target: T1, SIRT4; assay: LC-MS-based in vitro peptide deacylation assay; format: biochemical; conditions: 5 μM SIRT4, 10 uM peptide, with NAD, 1 hr at 37° C.
Text: Recombinant SIRT4 protein expression and purification. N-terminally truncated human Sirt4 (33-314 of SEQ ID NO: 2) was cloned into a derivative of pET-15b containing a human rhinovirus 3C Protease cleavage site in place of its thrombin cleavage site. 6×His-Sirt4 was co-expressed with GroEL and GroES in BL21(DE3) E. coli in order to promote proper protein folding. Protein was purified using immobilized-metal affinity chromatography (IMAC) followed by anion-exchange chromatography to remove associated folding chaperones. For some experiments the His-tag was removed using 3C protease. Protein was concentrated, snap frozen in N2(l), and stored at −80° C.
LC-MS-based in vitro peptide deacylation assay. The ability of SIRT4 to hydrolyze various acyl-lysine modifications was measured using LC-MS. In 20 μL reaction volume, 10 uM peptide (lipoyl-, biotinyl-, or acetyl-lysine) was incubated with increasing concentrations of SIRT4 (0.5 μM, 2.5 μM, and 5 μM), with or without NAD, in 50 mM TrisHCl, pH 8, 137 mM NaCl, 2.7 mM KCl and 1 mM MgCl2, for 1 hr at 37° C. Reactions were quenched with 25 μL of 2% TFA and an internal control peptide was spiked in to monitor for run-to-run variability. Reaction products were desalted, eluted, concentrated and analyzed by nano-LC-MS/MS, as above, but altered LC gradients. A 30 min linear gradient from 4-40% B was used for all peptides, except for lipoyl-lysine biological peptides, which used a 12-70% B linear gradient. Data were imported into Skyline software (version 2.1) to obtain precursor extracted ion chromatographams (XICs) using the following settings: Isotope Count, 3; precursor mass analyzer, Orbitrap; Resolving power, 60,000 @ 400 Th. The retention times of substrate (modified) and product (unmodified) peptides were confirmed by fragmentation spectra and peak integration boundaries were manually inspected. Three biological replicates were analyzed for each reaction.
The lipoamide cofactor bound to E2 (transferase enzymes) is required for dehydrogenase complex activity (FIG. 1b). Given that other mitochondrial SIRTs can hydrolyze various […] group lysine modifications^3,4 and that all PDHC components were present in our SIRT4 isolation, we speculated that E2 dehydrogenase components may be biological substrates of SIRT4, and that SIRT4 may directly hydrolyze the lipoamid modification. To test this we screened the in vitro activity of recombinant SIRT4 against differentially-modified synthetic peptides (FIG. 10). Firstly, SIRT4 activity towards acyl-modified H3K9 peptides (SEQ ID NOs: 3-5) was measured using a liquid-chromatography (LC)-MS-based deacylation assay. SIRT4 was incubated with H3K9 peptides modified with acetyl-lysine (SEQ ID NO: 5), biotinyl-lysine (SEQ ID NO: 4) or lipoyl-lysine (SEQ ID NO: 3), in the presence or absence of NAD. Following reaction, the remaining unreacted substrates and newly generated unmodified peptides were identified and quantified by LC-MS (FIG. 2A, 2G-2I and FIG. 5). […] To compare the relative preference of SIRT4 for these different substrates, we used extracted ion chromatograms to quantify unreacted substrate (S) and product (P) amounts from all reactions, and represented the percentage of unmodified peptide generated (FIG. 2H). […] The relative amount of unmodified product generated using 5 μM SIRT4 was 11% (lipoyl—SEQ ID NO: 3), 3% (biotinyl—SEQ ID NO: 4) and 0.3% (acetyl—[…]) (FIG. 2B and FIG. 2H, H3K9 substrates). […]

SIRT5 = biological target: T3, SIRT5 (Homo sapiens, UniProt Q9NXA8); assay: Kinetic analysis of SIRT5 with DLAT K259 peptides; format: biochemical
T3 construct: purchased Sigma SRP0119-100UG
T3 sequence (Q9NXA8 37-310): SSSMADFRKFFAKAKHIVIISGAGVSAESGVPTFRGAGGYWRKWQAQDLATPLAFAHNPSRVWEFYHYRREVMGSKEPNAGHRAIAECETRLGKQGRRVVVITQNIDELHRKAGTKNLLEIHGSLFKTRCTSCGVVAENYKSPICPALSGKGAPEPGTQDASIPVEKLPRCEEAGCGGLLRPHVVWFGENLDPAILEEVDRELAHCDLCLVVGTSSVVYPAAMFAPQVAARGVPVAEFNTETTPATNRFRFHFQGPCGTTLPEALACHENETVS

SIRT4 mRNA = assay: SIRT4 knock-down efficiency by qRT-PCR in MRC5 cells stably expressing shRNA; format: cell-based, human; conditions: MRC5 fibroblasts, mRNA level by qPCR; listed as construct #5
Text: SIRT4 shRNA expression. pLKO.1-puro vectors containing either non-targeting control shRNA or SIRT4-targeting shRNA were purchased from Sigma-Aldrich and are listed in FIG. 11. To generate MRC5 cells stably expressing each of the shRNA constructs, HEK293T cells were co-transfected with appropriate pLKO.1 vector, pCMVΔR8.2 (Addgene, plasmid #12263) and pMD2.G (Addgene, plasmid #12259) using FuGENE 6. Media containing lentivirus particles were used to transduce MRC5 cells, which were subsequently selected with 2 μg/mL puromycin (InvivoGen, cat. #ant-pr-1). Knockdown efficiency was measured by qRT-PCR and western blotting.
qRT-PCR analysis. For qRT-PCR analysis, MRC5 cells were collected and washed with PBS. Total RNA was isolated from cell pellets using RNeasy Mini Kit (Qiagen, cat. #74104) and the concentration/purity determined by measuring the absorbance 260/280 nm using NanoDrop Spectrophotometer (Thermo Fisher Scientific). For cDNA synthesis, 1 μg of RNA from each sample was first treated with DNase I (Life Technologies, cat. #18068015) and then used as a template in the RETROscript kit (Life Technologies, cat. #AM1710). The cDNAs were mixed with appropriate primers listed in FIG. 12 and Power SYBR green PCR master mix (Life Technologies, cat. #4368706) for qRT-PCR on ABI 7900HT Real-Time Thermocycler (Applied Biosystems). […]

[3] = SIRT4 enzyme concentration = 5 μM, NAD 1 mM, 25° C.

Substance | Km (SIRT4 [1]; [3]) [µM] | kcat (SIRT4 [1]; [3]) [s⁻¹] | increase in efficiency compared to H3K9 lipoyl (SIRT4 [1]; another experiment (Table 1)) [fold] | increased efficiency compared to H3K9 lipoyl (SIRT4 [1]; first experiment) [fold] | efficiency of hydrolysis by SIRT4, fold more than deacetylation of MCD (SIRT4 [1]; versus MCD acetyl) [fold] | SIRT3 efficiency, fold lower than for DLAT acetyl (SIRT3) [fold] | SIRT3 enzymatic activity (SIRT3) | relative amount of unmodified product generated (SIRT4 [2]) [%] | SIRT5 activity (SIRT5) | SIRT4 knock-down (SIRT4 mRNA) [%]
DLAT K259 Lipoyl: synthetic DLAT K259 peptide with lipoyl-lysine (SEQ ID NO: 8) (EIETDK(lipoyl″)ATIGWW) | 239 ± 51 | 0.0016 ± 0.0001 | 3.3 | 3.5 | ~1270 | 13 | some enzymatic activity | 33 | no activity was detected | 
shSIRT4 #5: SIRT4-targeting shRNA construct in pLKO.1-puro vector, purchased from Sigma-Aldrich (DNA CCGGACAGGGACTTTCACTTGAATCCTCGAGGATTCAAGTGAAAGTCCCTGTTTTTTG) |  |  |  |  |  |  |  |  |  | > 80
